Source: US20210395360A1 (published 2021)
Changes are numbered by the printed parent chain. Like-named read-outs stand apart in the source and are kept apart here. Blank lines part the entries; values can stand above or below the binder they belong to.

What was measured:
[1] = molecular target: T1, mouse Sp35 in cell lysate (immunoprecipitation, Western) (mouse, UniProt Q9D1T0 36-614, limits assumed); experiment: IP
T1 construct: also called mSp35; mLINGO-1
T1 sequence (looked up): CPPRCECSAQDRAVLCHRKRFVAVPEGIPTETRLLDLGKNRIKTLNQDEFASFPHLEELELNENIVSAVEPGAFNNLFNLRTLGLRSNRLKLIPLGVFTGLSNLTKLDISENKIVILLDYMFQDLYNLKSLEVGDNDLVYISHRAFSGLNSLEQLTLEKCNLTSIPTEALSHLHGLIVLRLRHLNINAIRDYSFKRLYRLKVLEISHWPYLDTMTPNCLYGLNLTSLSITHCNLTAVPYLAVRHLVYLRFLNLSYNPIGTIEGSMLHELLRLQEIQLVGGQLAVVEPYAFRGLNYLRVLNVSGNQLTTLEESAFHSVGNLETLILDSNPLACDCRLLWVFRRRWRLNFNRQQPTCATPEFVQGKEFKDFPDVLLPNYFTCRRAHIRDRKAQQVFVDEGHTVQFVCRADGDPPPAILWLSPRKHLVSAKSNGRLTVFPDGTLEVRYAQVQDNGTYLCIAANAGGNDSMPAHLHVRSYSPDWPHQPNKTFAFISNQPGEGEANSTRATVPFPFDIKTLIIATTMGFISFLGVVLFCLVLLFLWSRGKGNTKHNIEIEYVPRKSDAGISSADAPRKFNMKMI
Protocol: (§1) To perform the immunoprecipitation, COS-1 cells expressing Sp35, fused to a hemaglutinin (HA) tag on the N-terminus, were produced by transiently transfecting COS-1 cells with a DNA construct which expresses the full-length Sp35 protein with an HA tag. Cells were harvested 48 hr after transfection and were lysed in 1 ml lysis buffer (50 mM HEPES, pH 7.5, 150 mM NaCl, 1.5 mM MgCl₂, 1 mM EGTA, 1% Triton X-100 and 10% glycerol) for 30 min at 4° C. After centrifugation at 14,000×g for 15 min, the supernatants were incubated with ProteinA/G-Sepharose beads (Santa Cruz) at 4° C. for 1 hr, and then incubated at 4° C. for 1 hr with either the 1A7 or the 2F3 anti-Sp35 murine monoclonal antibodies. The beads were washed 3 times with lysis buffer, boiled in Laemmli sample buffer, subjected to 4-20% SD S-PAGE, and analyzed by Western blotting using an antibody which recognizes the HA tag. As shown on the SDS-PAGE gel, monoclonal antibodies 1A7 and 2F3, immunoprecipitated human and murine Sp35 (FIG. 1). […] Similarly, monoclonal antibodies 1G7, 2B10, 2F3, 3P4C2.2D2, 3P4C8.2G9, Li01, Li03, Li05, Li06, Li07, Li08, Li11, Li12, 7P1D5.1G9 and 3B5.2 immunoprecipitate human or mouse or human and mouse Sp35 (See Table 3B and 3C). Additionally, Li08 immunoprecipitates AP-Sp35 and monoclonal antibodies 1B6.4 and 3E3.1 immunoprecipitate endogenous Sp35 (See Table 3B).

[2] = molecular target: mouse Sp35 protein expressed on transfected cells (mouse) (UniProt Q9D1T0); experiment: FACS, stable CHO
[3] = molecular target: T2, human Sp35 protein expressed on transfected cells (human, UniProt Q96FE5 40-620); experiment: IHC, transfected cells
T2 construct: also called huSp35; hLINGO-1
T2 sequence: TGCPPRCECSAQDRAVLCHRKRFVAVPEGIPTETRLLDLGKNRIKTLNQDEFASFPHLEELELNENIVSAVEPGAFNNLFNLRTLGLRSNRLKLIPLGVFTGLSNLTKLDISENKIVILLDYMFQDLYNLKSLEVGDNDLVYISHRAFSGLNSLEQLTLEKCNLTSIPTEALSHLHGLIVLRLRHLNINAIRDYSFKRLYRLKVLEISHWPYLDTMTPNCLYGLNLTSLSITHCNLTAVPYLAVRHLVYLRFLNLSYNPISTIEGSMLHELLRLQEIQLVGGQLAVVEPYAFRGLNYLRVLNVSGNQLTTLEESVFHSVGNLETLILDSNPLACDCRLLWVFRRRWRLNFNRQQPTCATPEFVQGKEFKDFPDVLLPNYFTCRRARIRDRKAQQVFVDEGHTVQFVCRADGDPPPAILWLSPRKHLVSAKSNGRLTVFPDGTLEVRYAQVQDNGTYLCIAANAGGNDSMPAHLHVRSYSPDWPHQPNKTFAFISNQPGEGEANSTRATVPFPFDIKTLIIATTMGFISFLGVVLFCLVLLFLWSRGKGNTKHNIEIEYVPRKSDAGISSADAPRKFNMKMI

[4] = molecular target: T3, Sp35-Fc fusion protein (human Sp35 residues 1-532 fused to hinge and Fc of human IgG1) (human, UniProt Q96FE5 40-538); experiment: ELISA
T3 construct: ran as a dimer under non-reducing conditions; also called LINGO-1-Ig; not shown: hinge and Fc region of human IgG1
T3 sequence: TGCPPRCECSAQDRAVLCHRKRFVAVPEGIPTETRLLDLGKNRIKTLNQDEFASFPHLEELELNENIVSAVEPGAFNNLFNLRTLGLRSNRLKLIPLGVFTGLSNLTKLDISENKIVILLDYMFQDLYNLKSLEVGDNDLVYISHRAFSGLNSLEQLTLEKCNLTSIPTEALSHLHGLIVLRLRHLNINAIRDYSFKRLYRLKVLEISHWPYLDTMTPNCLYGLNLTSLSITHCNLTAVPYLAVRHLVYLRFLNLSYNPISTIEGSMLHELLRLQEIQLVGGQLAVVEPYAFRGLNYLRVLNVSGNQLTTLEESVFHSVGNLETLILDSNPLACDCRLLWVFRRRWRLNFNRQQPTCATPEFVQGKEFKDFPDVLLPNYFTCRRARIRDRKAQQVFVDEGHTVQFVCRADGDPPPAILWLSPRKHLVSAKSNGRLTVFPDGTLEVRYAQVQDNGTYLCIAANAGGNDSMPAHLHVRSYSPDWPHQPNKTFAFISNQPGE
Protocol: In order to determine which regions of the Sp35 polypeptide were bound by the various hybridoma- and phage display-derived monoclonal antibodies produced in Example 2, an ELISA assay was performed using a panel of truncated Sp35 polypeptides, each fused to the hinge and Fc regions of IgG1 by the methods described in Example 1. […] Ovalbumin and BSA were used as controls. […] The affinity of these latter antibodies for mouse and rat Sp35 was restored to the level seen using human Sp35 when amino acid 419 of the mouse or rat Sp35 is changed from histidine (H) to arginine (R). Arginine is the amino acid at position 419 in human Sp35. […] AP substrate was then developed by 10 mg/ml 4NPP in 0.1 M Glycine, 1 mM MgCl₂, 1 mM ZnCl₂, pH 10.5, and read at O.D. 405.

[5] = molecular target: T4, human Sp35, full-length, in cell lysate (immunoprecipitation, Western) (human, UniProt Q96FE5 40-620); experiment: IP
T4 construct: also called huSp35; hLINGO-1
T4 sequence: T2 sequence
Protocol: as §1

[6] = molecular target: T1, mouse Sp35 in cell lysate …; experiment: IP; remark: listed apart in the source
[7] = molecular target: T2, human Sp35 protein expressed on …; experiment: FACS, stable CHO
[8] = molecular target: T5, mouse Sp35 protein expressed on transfected cells (mouse, UniProt Q9D1T0 36-614); experiment: FACS, stable CHO
T5 construct: whole, on cells; also called mSp35; mLINGO-1
T5 sequence (looked up): T1 sequence (looked up)

Ig region of Sp35 = molecular target: T6, Ig region of Sp35 (Homo sapiens (Human), UniProt Q96FE5 423-538, limits assumed); experiment: ELISA
T6 sequence: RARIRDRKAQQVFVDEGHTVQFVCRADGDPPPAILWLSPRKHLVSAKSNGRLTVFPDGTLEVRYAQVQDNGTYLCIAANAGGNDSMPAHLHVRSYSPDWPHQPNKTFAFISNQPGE

B1: 30-B01 (Li11) Fab (Fab, V domains shown)
VH: EVQLLESGGGLVQPGGSLRLSCAASGFTFSSYAMYWVRQAPGKGLEWVSSISTSGGYTGYADSVKGRFTISRDNSKNTLYLQMNSLRAEDTAVYYCARDTSDNDYYYMDVWGKGTTVTVSS
VL: DIQMTQSPSSVSAPIGDRVTITCRASQEIANYLAWYQQKPGKAPKLLIYDTYTLQTDVPPRFSGSGSGTDFTLTISSLQPEDTATYFCQQADIFPLSFGGGTKVEIK
notes: human, kappa; also called Li011; Dli11
binding result [1]: binds

B2: D05 (full-length antibody with Li05 variable region) (antibody, V domains shown)
VH: EVQLLESGGGLVQPGGSLRLSCAASGFTFSAYAMGWVRQAPGKGLEWVSSIVSSGGYTDYADSVKGRFTISRDNSKNTLYLQMNSLRAEDTAVYYCAREGDHNAFDIWGQGTMVTVSS
VL: QSVLTQPPSVSVAPGQTARISCGGDNIGSKSVHWYQQRPGQAPVLVVYDDYDRPSGIPERFSGSNSGDTAILTITRVEVGDEADFYCQVRDSRTEERVFGGGTKVTVL
FACS on stable CHO [2]: 5.5 nM

B3: 2F3 monoclonal antibody (antibody, mouse IgG2a, V domains shown)
VH: EVKLEESGGGLVQPGGSMKLSCAASGFTFSDAWLDWVRQSPEKGLEWVAEIRSKANNHATNYAESVKGRFTISRDDSKSSVYLQMNSLRAEDTGIYFCTPSFAYWGQGTTVTVSS
VL: DIQMTQSPASLSASVGETVTITCRASGNIYNYLAWFQQKQGKSPQLLVYNAKTLPDGVPSRFSGSGSGTQYFLKINSLQPEDFGSYYCQHFWAIPYTFGGGTKLEIK
notes: murine IgG2a
binding result [3]: binds
binding result [4]: binds
binding result [5]: binds

B6: 1A7 Fab (Fab, V domains shown)
VH: QVQLVQSGPELKKPGETVKISCKASGYTFTNYGMNWVKQAPGKGLKWMGWINTDTGEPTYTEDFQGRFAFSLETSASTVYLQFNNLKNEDTATYFCAREGVHFDYWGQGTTVTVSS
VL: QIVLTQSPAIMSASPGEKVTMTCSASSSVSYMHWYQQKSGTSPKRWIYDTSKLASGVPARFSGSGSGTSYSLTISSMEAEDAATYYCQQWSSNPFTFGSGTKLEIK
notes: Fab of murine IgG1/kappa 1A7
FACS on stable CHO [7]: ~1 nM

B7: 3B5.2 monoclonal antibody (ATCC PTA-8106) (antibody, mouse IgG1, V domains shown)
VH: QVQLQQPGAELVRPGTSVKLSCRASGYTFTSYWMHWVKQRPGQGLEWIGVIDPSDSYTNYNQKFRGKATLTVDTSSSTAYMQLSSLTSEDSAVYYCARPYYGSHWFFDVWGTGTTVTVSS
VL: B6 VL with S28R, M32V, I47L, K52N, S62G, S64N, S92T, F95P, S99G
notes: murine IgG1/kappa; VL is named for 3B5.2; also called 3B5.5
FACS on stable CHO [8]: 0.4 nM
FACS on stable CHO [7]: < 0.4 nM
binding result (Ig region of Sp35): no binding

The next lines start with the values.

binding result [6]: binds
B4: 80-A08 (Dli33) Fab (Fab, V domains shown)
VH: EVQLLESGGGLVQPGGSLRLSCAASGFTFSIYPMFWVRQAPGKGLEWVSWIGPSGGITKYADSVKGRFTISRDNSKNTLYLQMNSLRAEDTATYYCAREGHNDWYFDLWGRGTLVTVSS
VL: DIQMTQSPGTLSLSPGERATLSCRASQSVSSYLAWYQQKPGQAPRLLIYDASNRATGIPARFSGSGSGTEFTLTISSLQSEDFAVYYCQQYDKWPLTFGGGTKVEIK
notes: human

binding result [6]: binds
B5: 80-D02 (Dli34) Fab (Fab, V domains shown)
VH: EVQLLESGGGLVQPGGSLRLSCAASGFTFSNYEMYWVRQAPGKGLEWVSGIYSSGGITVYADSVKGRFTISRDNSKNTLYLQMNSLRAEDTAVYYCARAAILDWYFDLWGRGTLVTVSS
VL: DIQMTQSPSSLSASVGDRVTITCHASQDISNYLSWYQQKPGKAPKLLIYDAFNLETGVPSRFSGSGSGTDFTFTISSLQPEDFATYYCQHYDNLPFTFGPGTRVAIR
notes: human

binding result [5]: binds
binding result [1]: binds
B8: 30-C12 (Li01) Fab (Fab, V domains shown)
VH: EVQLLESGGGLVQPGGSLRLSCAASGFTFSKYQMTWVRQAPGKGLEWVSSIYPSGGNTVYADSVKGRFTISRDNSKNTLYLQMNSLRAEDTAVYYCASGTTEAVFDYWGQGTLVTVSS
VL: DIQMTQSPSSLSASVGDRVTITCQASQDISNYLNWYQQKPGKAPKLLIYDASNLETGVPSRFSGSGSGTDFTLTISSLQPEDFATYYCQQADRFPAVTFGGGTKVEIK
notes: human, kappa; also called Dli01
